The text below walks through data of paper PMC9871958 (Protein & Cell, 2022).

Numbering of substitutions follows the chain as printed.

The experiment has as its target SARS-CoV-2 RBD protein (SARS-CoV-2, UniProt P0DTC2). In words: ELISA. The conditions noted are these: both partners purified. A general note: ELISA stands for enzyme-linked immunosorbent assay.

B1: 1F mutated at R102 (antibody, V domains shown)
VH: EVQLVESGPGLVKPSETLSLTCTVSGGSISSSSYYWGWIRQPPGKGLEWIGSIYYRGSTYYNPSLKSRVTISVDTSKNQFSLKLSSVTAADTAVYYCARHVASAYYYGSGSYRDEGNWFDPWGQGTLVTVSS
VL: QSVLTQPPSVSGAPGQRVTISCTGTRSNIGAGHDVHWYQQLPGTAPKLLIYGNNNRPSGVPDRFSGAKSGTSASLAITGLQAEDEADYYCQSYDRTLTSYVFGTGTKVTVL
notes: also called mutated 1F (R102)
As to B1, the binding result is recorded as “no binding”.

B2: 1F mutated at D114 (antibody, V domains shown)
VH: B1 VH with A102R, D114A
VL: B1 VL
notes: also called mutated 1F (D114)
Take B2: the binding result is “no binding”.
